Measured values published in the Human Domainome abundance scans (Beltran et al. 2025).
± gives the uncertainty stated by the source.

B1: POU domain, class 6, transcription factor 2, residues 609 to 663; numbered along this chain, P78424 (parent)
chain: KRRTSFTPQALEILNAHFEKNTHPSGQEMTEIAEKLNYDREVVRVWFCNKRQALK

Variants of: B1
Test: abundance fitness (aPCA) (normalised: wild type 0, dead -1); higher = more abundant; growth selection in yeast, the domain comes from the species named
Settings: Homo sapiens

Variant | abundance fitness
KRRTSFTPQALEILNAHFEKNTHPSGQEMTERAEKLNYDREVVRVWFCNKRQALK [I32R] | -0.958 ± 0.26
KRRTSFTPQALEILNAHFEKNTHPSGQEMTENAEKLNYDREVVRVWFCNKRQALK [I32N] | -0.838 ± 0.23
KRRTSFTPQALEILNAHFEKNTHPSGQEMTELAEKLNYDREVVRVWFCNKRQALK [I32L] | -0.154 ± 0.17
KRRTSFTPQALEILNAHFEKNTHPSGQEMTEVAEKLNYDREVVRVWFCNKRQALK [I32V] | -0.27 ± 0.14
KRRTSFTPQALEILNAHFEKNTHPSGQEMTEAAEKLNYDREVVRVWFCNKRQALK [I32A] | -0.679 ± 0.45
KRRTSFTPQALEILNAHFEKNTHPSGQEMTEGAEKLNYDREVVRVWFCNKRQALK [I32G] | -0.705 ± 0.21
KRRTSFTPQALEILNAHFEKNTHPSGQEMTEFAEKLNYDREVVRVWFCNKRQALK [I32F] | -0.649 ± 0.32
KRRTSFTPQALEILNAHFEKNTHPSGQEMTESAEKLNYDREVVRVWFCNKRQALK [I32S] | -1.07 ± 0.26
KRRTSFTPQALEILNAHFEKNTHPSGQEMTEMAEKLNYDREVVRVWFCNKRQALK [I32M] | -0.246 ± 0.28
KRRTSFTPQALEILNAHFEKNTHPSGQEMTEYAEKLNYDREVVRVWFCNKRQALK [I32Y] | 0.031 ± 0.36
KRRTSFTPQALEILNAHFEKNTHPSGQEMTEDAEKLNYDREVVRVWFCNKRQALK [I32D] | -1.16 ± 0.39
KRRTSFTPQALEILNAHFEKNTHPSGQEMTEWAEKLNYDREVVRVWFCNKRQALK [I32W] | -0.742 ± 0.24
KRRTSFTPQALEILNAHFEKNTHPSGQEMTEIAVKLNYDREVVRVWFCNKRQALK [E34V] | -0.194 ± 0.15
KRRTSFTPQALEILNAHFEKNTHPSGQEMTEIASKLNYDREVVRVWFCNKRQALK [E34S] | -0.047 ± 0.19
KRRTSFTPQALEILNAHFEKNTHPSGQEMTEIANKLNYDREVVRVWFCNKRQALK [E34N] | -0.531 ± 0.3
KRRTSFTPQALEILNAHFEKNTHPSGQEMTEIATKLNYDREVVRVWFCNKRQALK [E34T] | -0.012 ± 0.32
KRRTSFTPQALEILNAHFEKNTHPSGQEMTEIACKLNYDREVVRVWFCNKRQALK [E34C] | 0.127 ± 0.27
KRRTSFTPQALEILNAHFEKNTHPSGQEMTEIAGKLNYDREVVRVWFCNKRQALK [E34G] | -0.347 ± 0.18
KRRTSFTPQALEILNAHFEKNTHPSGQEMTEIALKLNYDREVVRVWFCNKRQALK [E34L] | -0.024 ± 0.15
KRRTSFTPQALEILNAHFEKNTHPSGQEMTEIAQKLNYDREVVRVWFCNKRQALK [E34Q] | -0.194 ± 0.18
KRRTSFTPQALEILNAHFEKNTHPSGQEMTEIARKLNYDREVVRVWFCNKRQALK [E34R] | -0.237 ± 0.2
KRRTSFTPQALEILNAHFEKNTHPSGQEMTEIAMKLNYDREVVRVWFCNKRQALK [E34M] | -0.285 ± 0.29
KRRTSFTPQALEILNAHFEKNTHPSGQEMTEIADKLNYDREVVRVWFCNKRQALK [E34D] | -0.428 ± 0.23
KRRTSFTPQALEILNAHFEKNTHPSGQEMTEIAEKLRYDREVVRVWFCNKRQALK [N37R] | -0.063 ± 0.076

Variant | abundance fitness
KRRTSFTPQALEILNAHFEKNTHPSGQEMTEIAEKLAYDREVVRVWFCNKRQALK [N37A] | -0.035 ± 0.089
KRRTSFTPQALEILNAHFEKNTHPSGQEMTEIAEKLLYDREVVRVWFCNKRQALK [N37L] | -0.241 ± 0.093
KRRTSFTPQALEILNAHFEKNTHPSGQEMTEIAEKLGYDREVVRVWFCNKRQALK [N37G] | 0.081 ± 0.075
KRRTSFTPQALEILNAHFEKNTHPSGQEMTEIAEKLVYDREVVRVWFCNKRQALK [N37V] | -0.456 ± 0.097
KRRTSFTPQALEILNAHFEKNTHPSGQEMTEIAEKLSYDREVVRVWFCNKRQALK [N37S] | -0.046 ± 0.075
KRRTSFTPQALEILNAHFEKNTHPSGQEMTEIAEKLTYDREVVRVWFCNKRQALK [N37T] | -0.263 ± 0.14
KRRTSFTPQALEILNAHFEKNTHPSGQEMTEIAEKLDYDREVVRVWFCNKRQALK [N37D] | -0.042 ± 0.14
KRRTSFTPQALEILNAHFEKNTHPSGQEMTEIAEKLQYDREVVRVWFCNKRQALK [N37Q] | -0.06 ± 0.12
KRRTSFTPQALEILNAHFEKNTHPSGQEMTEIAEKLFYDREVVRVWFCNKRQALK [N37F] | -0.353 ± 0.13
KRRTSFTPQALEILNAHFEKNTHPSGQEMTEIAEKLWYDREVVRVWFCNKRQALK [N37W] | -0.444 ± 0.1
KRRTSFTPQALEILNAHFEKNTHPSGQEMTEIAEKLYYDREVVRVWFCNKRQALK [N37Y] | 0.127 ± 0.3
KRRTSFTPQALEILNAHFEKNTHPSGQEMTEIAEKLPYDREVVRVWFCNKRQALK [N37P] | -0.229 ± 0.13
KRRTSFTPQALEILNAHFEKNTHPSGQEMTEIAEKLKYDREVVRVWFCNKRQALK [N37K] | -0.036 ± 0.11
KRRTSFTPQALEILNAHFEKNTHPSGQEMTEIAEKLIYDREVVRVWFCNKRQALK [N37I] | -0.326 ± 0.22
KRRTSFTPQALEILNAHFEKNTHPSGQEMTEIAEKLEYDREVVRVWFCNKRQALK [N37E] | -0.075 ± 0.12
KRRTSFTPQALEILNAHFEKNTHPSGQEMTEIAEKLCYDREVVRVWFCNKRQALK [N37C] | -0.252 ± 0.12
KRRTSFTPQALEILNAHFEKNTHPSGQEMTEIAEKCNYDREVVRVWFCNKRQALK [L36C] | -0.073 ± 0.27
KRRTSFTPQALEILNAHFEKNTHPSGQEMTEIAEKSNYDREVVRVWFCNKRQALK [L36S] | -0.6 ± 0.21
KRRTSFTPQALEILNAHFEKNTHPSGQEMTEIAEKGNYDREVVRVWFCNKRQALK [L36G] | -0.823 ± 0.13
KRRTSFTPQALEILNAHFEKNTHPSGQEMTEIAEKMNYDREVVRVWFCNKRQALK [L36M] | -0.175 ± 0.33
KRRTSFTPQALEILNAHFEKNTHPSGQEMTEIAEKANYDREVVRVWFCNKRQALK [L36A] | -0.094 ± 0.18
KRRTSFTPQALEILNAHFEKNTHPSGQEMTEIAEKWNYDREVVRVWFCNKRQALK [L36W] | -0.642 ± 0.16
KRRTSFTPQALEILNAHFEKNTHPSGQEMTEIAEKVNYDREVVRVWFCNKRQALK [L36V] | -0.003 ± 0.14
KRRTSFTPQALEILNAHFEKNTHPSGQEMTEIAEKRNYDREVVRVWFCNKRQALK [L36R] | -0.967 ± 0.19
